From paper PMC7282817

molecular target: Spen RRM2-4 RRM3 Mt ((SHARP named as human homolog for the pET28a constructs; gene listed as mouse NM_019763.2)) (UniProt Q96T58); assay: fluorescence anisotropy; conditions: pH 8.3; FA: 45 mM KCl, 5 mM NaCl, 50 mM Tris pH 7.5 (WT) or 8.3 (RRM3 Mt), 5% glycerol, RNA 1-3 nM, room temperature 40-60 min; competition EMSA: 50 mM Tris pH 7.5 …
UniProt Q96T58, sequence (Q96T58 whole entry): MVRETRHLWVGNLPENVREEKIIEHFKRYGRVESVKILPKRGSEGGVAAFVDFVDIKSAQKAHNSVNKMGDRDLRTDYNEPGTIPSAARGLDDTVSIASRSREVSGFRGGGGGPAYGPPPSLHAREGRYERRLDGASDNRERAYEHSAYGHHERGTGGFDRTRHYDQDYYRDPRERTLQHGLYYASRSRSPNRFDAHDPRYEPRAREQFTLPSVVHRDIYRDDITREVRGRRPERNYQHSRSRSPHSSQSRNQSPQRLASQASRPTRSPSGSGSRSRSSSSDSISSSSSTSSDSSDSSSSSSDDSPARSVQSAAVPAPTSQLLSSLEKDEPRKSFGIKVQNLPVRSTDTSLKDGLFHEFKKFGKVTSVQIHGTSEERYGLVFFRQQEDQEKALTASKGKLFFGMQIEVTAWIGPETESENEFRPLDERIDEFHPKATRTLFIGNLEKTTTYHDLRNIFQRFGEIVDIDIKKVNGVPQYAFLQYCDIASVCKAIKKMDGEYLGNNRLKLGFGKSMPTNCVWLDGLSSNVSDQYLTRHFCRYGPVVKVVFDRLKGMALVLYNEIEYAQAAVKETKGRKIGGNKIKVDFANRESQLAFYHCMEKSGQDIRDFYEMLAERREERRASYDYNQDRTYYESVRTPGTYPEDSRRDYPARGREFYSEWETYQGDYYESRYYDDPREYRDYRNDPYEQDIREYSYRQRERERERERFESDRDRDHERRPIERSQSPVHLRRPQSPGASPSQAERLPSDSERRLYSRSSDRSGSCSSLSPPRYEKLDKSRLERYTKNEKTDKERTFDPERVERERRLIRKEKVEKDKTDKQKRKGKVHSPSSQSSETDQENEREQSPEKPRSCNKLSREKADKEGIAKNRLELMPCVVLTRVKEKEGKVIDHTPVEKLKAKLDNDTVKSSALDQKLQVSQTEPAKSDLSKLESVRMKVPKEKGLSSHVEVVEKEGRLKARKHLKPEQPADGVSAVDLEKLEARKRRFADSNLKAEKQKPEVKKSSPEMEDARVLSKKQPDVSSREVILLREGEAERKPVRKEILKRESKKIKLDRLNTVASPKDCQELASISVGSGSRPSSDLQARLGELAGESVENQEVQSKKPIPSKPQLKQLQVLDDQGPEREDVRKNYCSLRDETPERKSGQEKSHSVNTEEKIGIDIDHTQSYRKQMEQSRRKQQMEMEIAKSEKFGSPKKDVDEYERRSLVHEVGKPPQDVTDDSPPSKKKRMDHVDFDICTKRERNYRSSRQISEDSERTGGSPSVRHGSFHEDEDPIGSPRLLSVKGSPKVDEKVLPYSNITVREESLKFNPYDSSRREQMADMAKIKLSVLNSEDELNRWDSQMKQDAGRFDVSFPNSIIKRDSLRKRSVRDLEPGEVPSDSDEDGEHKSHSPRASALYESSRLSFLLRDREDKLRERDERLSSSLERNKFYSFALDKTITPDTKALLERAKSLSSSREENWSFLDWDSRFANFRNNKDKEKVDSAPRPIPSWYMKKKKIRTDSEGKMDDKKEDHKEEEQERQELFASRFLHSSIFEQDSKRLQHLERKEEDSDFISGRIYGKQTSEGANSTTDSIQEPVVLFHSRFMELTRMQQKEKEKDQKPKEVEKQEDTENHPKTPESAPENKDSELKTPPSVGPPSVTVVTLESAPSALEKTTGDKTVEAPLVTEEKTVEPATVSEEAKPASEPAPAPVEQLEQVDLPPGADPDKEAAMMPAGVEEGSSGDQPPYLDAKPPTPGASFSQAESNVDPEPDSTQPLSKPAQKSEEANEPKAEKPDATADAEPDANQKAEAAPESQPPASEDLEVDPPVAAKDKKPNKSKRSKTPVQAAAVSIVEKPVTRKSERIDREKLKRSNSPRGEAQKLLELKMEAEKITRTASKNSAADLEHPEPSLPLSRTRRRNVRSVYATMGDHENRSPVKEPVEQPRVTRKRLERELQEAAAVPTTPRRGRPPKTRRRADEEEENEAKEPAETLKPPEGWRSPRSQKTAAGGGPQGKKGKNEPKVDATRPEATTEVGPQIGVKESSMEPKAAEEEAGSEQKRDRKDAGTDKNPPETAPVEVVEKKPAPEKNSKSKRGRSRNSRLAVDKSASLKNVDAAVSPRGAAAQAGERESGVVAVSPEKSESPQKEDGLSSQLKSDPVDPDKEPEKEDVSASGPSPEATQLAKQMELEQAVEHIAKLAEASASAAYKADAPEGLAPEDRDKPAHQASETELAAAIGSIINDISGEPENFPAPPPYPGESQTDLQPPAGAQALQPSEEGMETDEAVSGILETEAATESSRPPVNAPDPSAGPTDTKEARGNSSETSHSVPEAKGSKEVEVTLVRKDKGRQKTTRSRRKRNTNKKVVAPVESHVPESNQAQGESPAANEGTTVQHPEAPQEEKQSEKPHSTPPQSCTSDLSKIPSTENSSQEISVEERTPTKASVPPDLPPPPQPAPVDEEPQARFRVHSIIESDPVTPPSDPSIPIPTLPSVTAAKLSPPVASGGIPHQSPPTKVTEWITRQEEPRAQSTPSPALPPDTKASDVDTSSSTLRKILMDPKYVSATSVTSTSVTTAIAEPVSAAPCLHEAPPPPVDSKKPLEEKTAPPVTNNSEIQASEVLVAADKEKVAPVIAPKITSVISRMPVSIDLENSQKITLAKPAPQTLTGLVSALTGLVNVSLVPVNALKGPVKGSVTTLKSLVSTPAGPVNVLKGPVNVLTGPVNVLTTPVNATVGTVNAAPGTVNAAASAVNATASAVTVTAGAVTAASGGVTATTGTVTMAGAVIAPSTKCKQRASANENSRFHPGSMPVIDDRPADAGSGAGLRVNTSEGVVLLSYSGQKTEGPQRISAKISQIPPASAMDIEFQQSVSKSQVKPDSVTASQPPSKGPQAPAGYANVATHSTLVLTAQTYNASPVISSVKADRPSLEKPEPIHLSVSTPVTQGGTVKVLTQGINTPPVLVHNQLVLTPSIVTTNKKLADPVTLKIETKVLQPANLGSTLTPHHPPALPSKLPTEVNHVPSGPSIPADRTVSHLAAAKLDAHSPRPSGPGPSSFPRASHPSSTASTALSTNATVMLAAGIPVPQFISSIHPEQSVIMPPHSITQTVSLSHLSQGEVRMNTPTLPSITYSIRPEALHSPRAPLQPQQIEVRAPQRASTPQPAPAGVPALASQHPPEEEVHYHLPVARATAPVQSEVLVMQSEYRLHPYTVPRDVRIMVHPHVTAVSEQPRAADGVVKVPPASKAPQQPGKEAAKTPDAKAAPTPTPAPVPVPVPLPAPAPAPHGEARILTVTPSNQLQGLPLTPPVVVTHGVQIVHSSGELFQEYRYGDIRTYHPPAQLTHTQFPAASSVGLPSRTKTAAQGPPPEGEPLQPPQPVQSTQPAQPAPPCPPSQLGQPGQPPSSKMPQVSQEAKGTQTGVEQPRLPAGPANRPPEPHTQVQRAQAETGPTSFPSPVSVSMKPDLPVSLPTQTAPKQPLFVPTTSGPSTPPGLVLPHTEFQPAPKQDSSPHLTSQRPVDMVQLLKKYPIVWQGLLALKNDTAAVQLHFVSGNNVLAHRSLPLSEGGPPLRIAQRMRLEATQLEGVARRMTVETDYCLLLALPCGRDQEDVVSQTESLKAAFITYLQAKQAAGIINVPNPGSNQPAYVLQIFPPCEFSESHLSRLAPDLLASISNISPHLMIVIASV

Binding signal (affinity relative to RRM2-4), 0.5:
GAUUCCAGGCAGAACUGUUGAGCAUAGAUAAUUUUCCCCCCUCAGGCCAGCUUUUUCUUUUUUUAAAUUUUGUUAAUAAAAGGGAG [ERV 205 (86 nt)], GGUACCUUAAAUCCUUGCUCUCACCCAAAAGAUUCAGAGACAAUAUCCUUUUAUUACUUAGGGUUUUAGUUUACUACAAAAGUUUCUACAAAAAAUAAAGCUUUUAUAA [ERV 411 (109 nt)], GGUUAAAACUGCUAUUGUUCCAUUGACUGCAGCUUGCAGUUUGAUUUCAAAUUUAAGAUCUUUAAUUCACCUGUAUACUGUAAUUAAGAUAAUUACAAGAGUAAUCAUCUUAUG [ERV 509 (114 nt)], GGAACUCGUUCCUUCUCCUUAGCCCAUCGGGGCCAUGGAUACCUGCUUUUAACCUUUCUCGGUCCAUCGGGACCUCGGAUACCUG [Xist A-repeat (85 nt)], GAAAUUUCUCUCUGGGCCUUAUAGCAGGAGUACUCUGUUCCCUUUUGUGUCUUGUCUAAUGUCCGGUGCACCAAUCUGUUCUCGUGUUCAAUUCAUGUAUGUUCGUGUCCAGU [ERV 495 (113 nt)], GAUCAGAGUAACUGUCUUGGCUACAUUCUUUUCUCUCGCCACCUAGCCCCUCUUCUCUUCCAGGUUUCCAAAAUGCCUUUCCAGGCUAGAACCCAGGUUGUGGUCUGCUGG [ERV 302 (111 nt)]
